B1: Pistol ribozyme (parent)
chain: GGGUCGUUGUUCCAUAAUCGCGUGGAUAUGGCACGCAAGUUUCUACCGGGCACCGUAAAUGUCCGACUGGAGCCGUUCGGGCGGCUAUAAACAGACCUCAGGCCCGAAGCGUGGCGGCACCUGCCGCCGGUGGUAAAAAAGAUCGGAAGAGCACACGUCU

Variants of: B1
Assay: aptazyme ON/OFF ratio, guanine; higher = stronger switching; co-transcriptional cleavage with and without guanine

Variant	aptazyme ON/OFF ratio
U7G U8G G9A U10C U11G C12U	1.34
U7G U8G G9A U10C U11G C12A	1.15
U7G U8C U11C C12G C13G	1.11
U7G U8C U11C C12G C13A	1.32
U7G U8C U11C C12G C13U	1.46
U7G U8G G9A U10A U11A C12G	1.16
U7G U8G G9A U10A U11A C12U	1.35
U7G U8G G9A U10A U11A C12A	1.19
U7G U8G C12A	1.25
U7G U8G C12G	1.38
U7G U8G C12U	1.21
U7G U8G C12A C13G	1.22
U7G U8G C12A C13A	1.31
U7G U8G C12A C13U	1.57
U7G U8G G9A C13A	1.5
U7G U8G G9A C13G	1.17
U7G U8G G9A C13U	1.36
U7G U8G G9A U10A U11G C13A	1.09
U7G U8G G9A U10A U11G C13U	1.14
U7G U8G G9A U10A U11G C13G	1.16
U7G U8G G9A U10G C12A C13G	1.07
U7G U8G G9A U10G C12A C13A	1.1
U7G U8G G9A U10G C12A C13U	1.32
U7G U8G G9A U10G U11G C12A C13A	1.1

Variant	aptazyme ON/OFF ratio
U7G U8G G9A U10G U11G C12A C13U	1.17
U7G U8G G9A U10G U11G C12A C13G	1.15
U7G U8G G9A U10A U11C C12G C13A	1.13
U7G U8G G9A U10A U11C C12G C13U	1.13
U7G U8G G9A U10A U11C C12G C13G	1.22
U7G U8G G9A U10C U11A C12U	1.18
U7G U8G G9A U10C U11A C12A	1.34
U7G U8G G9A U10C U11A C12G	1.21
U7G U8G G9A U10G U11A C12A C13U	1.18
U7G U8G G9A U10G U11A C12A C13G	1.04
U7G U8G G9A U10G U11A C12A C13A	1.12
U7G U8C U11G C12G C13A	1.11
U7G U8C U11G C12G C13G	1.11
U7G U8C U11G C12G C13U	1.12
U7G U8G G9A U10A U11C C12U C13A	1.08
U7G U8G G9A U10A U11C C12U C13U	1.15
U7G U8G G9A U10A U11C C12U C13G	1.17
U7G U8G G9A U10A C12A C13A	1.2
U7G U8G G9A U10A C12A C13U	1.06
U7G U8G G9A U10A C12A C13G	1.04
U7G U8G G9A U10A U11G C12A	1.07
U7G U8G G9A U10A U11G C12G	1.43
U7G U8G G9A U10A U11G C12U	1.22
U7G U8C U11A C12A	1.37

Variant	aptazyme ON/OFF ratio
U7G U8C U11A C12U	1.31
U7G U8C U11A C12G	1.12
U7G U8G G9A U10C C12A	1.46
U7G U8G G9A U10C C12U	1.59
U7G U8G G9A U10C C12G	1.28
U7G U8C U10G U11C C13U	1.4
U7G U8C U10G U11C C13A	1.33
U7G U8C U10G U11C C13G	1.19
U7G U8C U10C U11G C13A	1.23
U7G U8C U10C U11G C13U	1.38
U7G U8C U10C U11G C13G	1.26
U7G U8G G9A U10G C12U C13U	1.17
U7G U8G G9A U10G C12U C13A	1.25
U7G U8G G9A U10G C12U C13G	1.31
U7G U8C U10G U11A C12G	1.13
U7G U8C U10G U11A C12U	1.22
U7G U8C U10G U11A C12A	1.15
U7G U8G G9A U10C U11A C12G C13G	1.18
U7G U8G G9A U10C U11A C12G C13A	1.04
U7G U8G G9A U10C U11A C12G C13U	1.17
U7G U8C U10G U11C C12G C13U	1.36
U7G U8C U10G U11C C12G C13A	1.28
U7G U8C U10G U11C C12G C13G	1.18
U7G U8G G9A U10A U11C C12A C13A	1.06

Variant	aptazyme ON/OFF ratio
U7G U8G G9A U10A U11C C12A C13G	1.17
U7G U8G G9A U10A U11C C12A C13U	1.09
U7G U8C U10G C12G C13A	1.12
U7G U8C U10G C12G C13G	1.13
U7G U8C U10G C12G C13U	1.08
U7G U8G G9A U10G C13A	1.39
U7G U8G G9A U10G C13G	1.11
U7G U8G G9A U10G C13U	1.27
U7G U8C U11G C12A C13U	1.19
U7G U8C U11G C12A C13A	1.13
U7G U8C U11G C12A C13G	1.15
U7G U8G G9A U10G U11C	1.05
U7G U8G G9A U10G U11A	1.07
U7G U8G G9A U10G U11G	1.61
U7G U8G G9A U10A U11G C12G C13U	1.06
U7G U8G G9A U10A U11G C12G C13A	1.14
U7G U8G G9A U10A U11G C12G C13G	1.15
U7G U8C U10G C12U C13A	1.34
U7G U8C U10G C12U C13G	1.22
U7G U8C U10G C12U C13U	1.36
U7G U8G G9A U10A U11G C12U C13G	1.12
U7G U8G G9A U10A U11G C12U C13A	1.13
U7G U8G G9A U10A U11G C12U C13U	1.35
U7G U8G G9A U10G U11A C12U C13G	1.21

Variant	aptazyme ON/OFF ratio
U7G U8G G9A U10G U11A C12U C13A	1.15
U7G U8G G9A U10G U11A C12U C13U	1.07
U7G U8G G9A U10G U11C C12G	1.26
U7G U8G G9A U10G U11C C12U	1.27
U7G U8G G9A U10G U11C C12A	1.4
U7G U8G	1.29
U7G U8G G9A U10A U11A C12U C13U	1.24
U7G U8G G9A U10A U11A C12U C13G	1.13
U7G U8G G9A U10A U11A C12U C13A	1.03
U7G U8G G9A U10G U11G C12G C13A	1.23
U7G U8G G9A U10A U11A C13A	1.16
U7G U8G G9A U10A U11A C13U	1.18
U7G U8G G9A U10A U11A C13G	1.14
U7G U8G G9A U10A U11G	2.19
U7G U8G G9A U10A U11A	1.53
U7G U8G G9A U10A U11C	1.02
U7G U8G G9A U10G U11C C12A C13G	1.15
U7G U8G G9A U10G U11C C12A C13U	1.27
U7G U8G G9A U10G U11C C12A C13A	1.17
U7G U8C U10G U11A C12G C13G	1.21
U7G U8C U10G U11A C12G C13U	1.23
U7G U8C U10G U11A C12G C13A	1.09
U7G U8C U10G C12G	1.05
U7G U8C U10G C12U	1.36

Variant	aptazyme ON/OFF ratio
U7G U8C U10G C12A	1.33
U7G U8C U10G	1.31
U7G U8C U10G C13U	1.24
U7G U8C U10G C13G	1.22
U7G U8C U10G C13A	1.24
U7G U8G G9A C12A C13U	1.49
U7G U8G G9A C12A C13A	1.32
U7G U8G G9A C12A C13G	1.11
U7G U8G G9A U10C U11C	1.08
U7G U8G G9A U10C U11A	2.49
U7G U8G G9A U10C U11G	1.89
U7G U8G G9A U10C U11G C12G C13A	1.1
U7G U8G G9A U10C U11G C12G C13U	1.08
U7G U8G G9A U10C U11G C12G C13G	1.14
U7G U8G G9A U10A U11C C13A	1.08
U7G U8G G9A U10A U11C C13G	1.06
U7G U8G G9A U10A U11C C13U	1.05
U7G U8G G9A U10A U11C C12U	1.1
U7G U8G G9A U10A U11C C12G	1.23
U7G U8G G9A U10A U11C C12A	1.21
U7G U8C U11C C13U	1.32
U7G U8C U11C C13G	1.07
U7G U8C U11C C13A	1.3
U7G U8C U11G C13U	1.17

Variant	aptazyme ON/OFF ratio
U7G U8C U11G C13G	1.2
U7G U8C U11G C13A	1.29
U7G U8C U10G U11A C12A C13U	1.12
U7G U8C U10G U11A C12A C13A	1.11
U7G U8C U10G U11A C12A C13G	1.1
U7G U8C U10G U11G C12A C13A	1.09
U7G U8C U10G U11G C12A C13U	1.29
U7G U8C U10G U11G C12A C13G	1.1
U7G U8G G9A U10G U11C C12U C13U	1.29
U7G U8G G9A U10G U11C C12U C13G	1.27
U7G U8G G9A U10G U11C C12U C13A	1.07
U7G U8G G9A U10A C12G C13A	1.1
U7G U8G G9A U10A C12G C13G	1.18
U7G U8G G9A U10A C12G C13U	1.22
U7G U8C U10G C12A C13A	1.12
U7G U8C U10G C12A C13U	1.2
U7G U8C U10G C12A C13G	1.12
U7G U8C U10G U11G C12G C13G	1.08
U7G U8C U10G U11G C12G C13A	1.18
U7G U8C U10G U11G C12G C13U	1.4
U7G U8C U10C U11G C12U C13U	1.31
U7G U8C U10C U11G C12U C13G	1.16
U7G U8C U10C U11G C12U C13A	1.29

Source: the RNAGym collection of RNA variant scans (doi:10.1021/acssynbio.7b00057)
